Test results as given in publication PMC9332313, “Folding and Binding Mechanisms of the SH2 Domain from Crkl” (Biomolecules, 2022).
Square brackets hold non-standard residues; d marks the D form. Ends that are not written are not given here. * marks the point of attachment. pY = N[C@@H](Cc1ccc(OP(=O)(O)O)cc1)C(=O)O; Dansyl = CN(C)c1cccc2c(S(=O)(=O)*)cccc12

Target: T1, SH2 domain of Crkl protein (residues 1-111), H80A variant (UniProt P46109 1-111, H80A)
T1 construct: Crkl adaptor protein, SH2 domain, residues 1-111, His80 replaced by alanine; Site-directed mutant of m1 (QuikChange); source: E. coli BL21 (DE3), purified (HisTrap nickel column, desalting); not shown: His tag, N-terminal, kept
Assay: stopped-flow fluorescence kinetics (FRET); dansyl-Pax112-123 constant at 2 μM mixed with Crkl-SH2 2 to 10 μM (pseudo-first-order, kon); koff by displacement of the preincubated 2 µM complex with excess non-dansylated Pax112-123 (30 μM); 283 K; 50 mM BisTRIS pH 6.0, 0.5 M NaCl
Conditions: both partners purified

T1 sequence (P46109 1-111 H80A): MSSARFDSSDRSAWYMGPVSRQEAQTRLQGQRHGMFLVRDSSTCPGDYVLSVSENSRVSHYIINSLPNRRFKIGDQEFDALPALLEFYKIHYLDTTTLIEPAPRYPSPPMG

B1: dansylated Pax_(112–123) peptide (Dans-GEEEHV-pY-SFPNK) (peptide)
peptide: Dansyl-GEEEHV[pY]SFPNK
notes: The dansyl group is the FRET acceptor of Trp14 of the SH2 domain; source: synthetic peptide, bought: GenScript
  Kd: 3.2 ± 0.1 µM
  koff: 19.6 ± 0.3 s⁻¹
  kon: 6.1e+06 ± 300000 M⁻¹ s⁻¹
